Measurements as given in patent US11839630B2, “CAR-T cells targeting IL-1RAP and their use” (ETABLISSEMENT FRANCAIS DU SANG, priority 2017, dated 2023).
“And” between values parts separate entries of the source, which are not always exact repeats. Equal values may be shown once.

Experiments:
[1] = biological target: T1, IL-1RAP (Homo sapiens, UniProt Q9NPH3); test: Immunostaining of FDA standard frozen normal tissue array; type: binding; set-up: FDA standard frozen tissue arrays, including 90 tissue cores (30 organs) of 3 individual donors per organ; tissue US Biomax; host or cells: FDA standard frozen normal human tissue array (30 organs, 3 donors each); key to Staining intensity (0 to 3+): negative (0); weak staining (1+); moderate staining (2+); strong staining (3+); settings: for normal tissues in which staining was detected: 30 normal human tissues, 3 donors per organ
T1 sequence (Q9NPH3 21-570): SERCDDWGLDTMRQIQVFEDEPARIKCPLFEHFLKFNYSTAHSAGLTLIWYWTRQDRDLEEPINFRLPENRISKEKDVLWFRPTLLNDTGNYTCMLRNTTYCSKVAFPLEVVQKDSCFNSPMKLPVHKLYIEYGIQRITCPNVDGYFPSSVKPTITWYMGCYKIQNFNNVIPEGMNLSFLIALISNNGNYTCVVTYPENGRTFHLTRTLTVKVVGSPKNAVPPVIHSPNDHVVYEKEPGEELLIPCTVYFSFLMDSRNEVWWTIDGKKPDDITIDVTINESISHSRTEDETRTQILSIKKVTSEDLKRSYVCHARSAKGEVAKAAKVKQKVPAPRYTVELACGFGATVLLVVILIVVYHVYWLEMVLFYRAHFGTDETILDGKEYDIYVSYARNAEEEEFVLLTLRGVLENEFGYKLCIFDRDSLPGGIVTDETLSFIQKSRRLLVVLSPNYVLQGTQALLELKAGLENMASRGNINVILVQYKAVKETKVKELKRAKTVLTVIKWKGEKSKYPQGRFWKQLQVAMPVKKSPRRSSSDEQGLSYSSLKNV
Excerpt: FIG. 22: (A) Tissue microarray. Representative #A3C3 staining of an US Food and Drug Administration standard frozen tissue array, including 90 tissue cores (30 organs) of 3 individual donors per organ (US Biomax, Rockville, MD, USA). Immunostaining was detected using the UltraView Universal DAB Detection Kit (Ventana, USA). Images were acquired and analyzed with NDP.view 2.0 software. […] (Scale bars, 100 μm.) High IL-1RAP (KU812)— or negative (Raji)-expressing cell lines were respectively used as positive or negative controls. (B) IL-1RAP R&D (red) or #A3C3 (blue) staining of HMEC-1 dermal endothelial cell line. Isotype IgG1 (gray) is depicted as overlay. RFI is provided for both staining.
In order to study specific or non-target tissue binding, FDA standard frozen tissue arrays, including 90 tissue cores (30 organs) of 3 individual donors per organ (US Biomax, Rockville, United States) were incubated as previously described. Immunostaining was detected using UltraView Universal DAB Detection Kit (Ventana, USA). Images were acquired and analyzed with NDP.view 2 software. High IL-1RAP (KU812) or negative (Raji) expressing cell lines were respectively used as positive or negative controls. The staining intensity was graduated as follows: negative (0), weak staining (1+), moderate staining (2+), or strong staining (3+). […]

[2] = biological target: T1, IL-1RAP; test: Confocal microscopy on KU812 and Raji cell lines; type: binding; settings: KU812 cells
Description: FIG. 4: KU812 (a) and Raji cells lines (b) stained with Fluorescence mAbs [(left panel: anti murine Fc-IgG; medium panel: IL-1RAP (#E3C3)]. Counterstaining was performed by nuclear stain DAPI and superposed to Fluorescent staining (right panel, merge).
Confocal microscopy was assessed on KU812 and Raji cells lines concentrated on slides (Superfrost™ Plus, 4951PLUS4, ThermoFisher Scientific) by Cytospin. Briefly, the cells were stained with Fluorescent monoclonal antibodies: anti murine Fc-IgG; IL-1RAP (#E3C3) and were analyzed with an Olympus BX51 microscope equipped with a QImaging Retiga 2000R camera. Digital images were acquired using the 40× objective and digitalized with Image-Pro Plus (version 6.0, Media Cybernetics). Counterstaining was performed by nuclear stain DAPI (2-(4-Amidinophenyl)-6-indolecarbamidine dihydrochloride, Sigma-Aldrich-France) and superposed to fluorescent staining.

B1: #E3C3: mouse anti-hIL-1RAP monoclonal antibody subclone generated by standard hybridoma technique; VH SEQ ID NO: 2, VL SEQ ID NO: 4 (antibody, V domains shown)
VH: MGWSCIILFLVATATGVNSQVQLQQPGAELMMPGASVKVSCEASGYTFTDSWMHWVKQRPGQGLEWIGAIDPSDSYTTYNQKFTGKATLSVDESSNTAYMQLSSLTSEDSAVYYCARYYSGSNYISPFPYWGQGTLVTVSA
VL: MESQIQVFVFVFLWLSGVDGDIVMTQSHKFMSTSVGDRVTITCKASLDVSTAVAWYQQKPGQSPKLLIYSASYRYTGVPDRFTGSGSGTDFTFTISSVQAEDLAVYYCQQHYSPPFTFGSGTNLEIK
modifications: Amino acid sequence of chain H (VH) of murine scFv anti-IL-1RAP; Amino acid sequence of chain K (VL) of murine scFv anti-IL-1RAP
[1]
  normal tissues in which staining was detected: only 6 tissues as Lymph node, colon, small intestine, placenta, stomach and prostate
[1]; listed as #A3C3
  normal tissues in which staining was detected: only six tissues: lymph node, prostate, skeletal muscle, stomach, colon and small intestine, and pancreas
[1]; Adrenal gland, replicates
  Staining intensity (0 to 3+): 0
[1]; Cerebellum tissue, replicates
  Staining intensity (0 to 3+): 0
[1]; Colon
  Comments: epithelial cells stained: Epithelial cells (~30%);
  Comments: inflammatory elements stained: inflammatory elements (100%)
[1]; Colon, replicates
  Staining intensity (0 to 3+): 3+
[1]; Esophagus, replicates
  Staining intensity (0 to 3+): 0
[1]; Heart, replicates
  Staining intensity (0 to 3+): 0
[1]; Kidney, replicates
  Staining intensity (0 to 3+): 0
[1]; Liver, replicates
  Staining intensity (0 to 3+): 0
[1]; Lung
  Comments: stained elements: Few inflammatory elements
[1]; Lung, replicates
  Staining intensity (0 to 3+): 2+
[1]; Lymph node
  Comments: endothelial cells stained: ~30% of endothelial cells
[1]; Lymph node, replicates, listed as mAb#A3C3
  Staining intensity (0 to 3+): 2+ and 1+
[1]; Ovary, replicates
  Staining intensity (0 to 3+): 0
[1]; Pancreas, replicates
  Staining intensity (0 to 3+): 1+
[1]; Peripheral nerve, replicates
  Staining intensity (0 to 3+): 0
[1]; Pituitary gland, replicates
  Staining intensity (0 to 3+): 0
[1]; Placenta
  Comments: cytotrophoblast cells stained: Cytotrophoblast cells (~10%)
[1]; Placenta, replicates
  Staining intensity (0 to 3+): 0
[1]; Prostate
  Comments: endothelial cells stained: ~10% of endothelial cells
[1]; Prostate, replicates, listed as mAb#A3C3
  Staining intensity (0 to 3+): 1+ (2×) and 0 (4×)
[1]; Salivary gland, replicates
  Staining intensity (0 to 3+): 0
[1]; Skeletal muscle
  Comments: endothelial cells stained: ~10% of endothelial cells
[1]; Skeletal muscle, replicates (first listing), listed as mAb#A3C3
  Staining intensity (0 to 3+): 1+ and 0 (2×)
[1]; Skeletal muscle, replicates (second listing)
  Staining intensity (0 to 3+): 0
[1]; Skin, replicates
  Staining intensity (0 to 3+): 0
[1]; Small intestine
  Comments: epithelial cells stained: Epithelial cells (~30%);
  Comments: inflammatory elements stained: inflammatory elements (100%)
[1]; Small intestine, replicates, listed as mAb#A3C3
  Staining intensity (0 to 3+): 2+ and 0 and 1+
[1]; Smooth muscle, replicates
  Staining intensity (0 to 3+): 0
[1]; Spinal cord, replicates
  Staining intensity (0 to 3+): 0
[1]; Spleen
  Comments: stained elements: Necrotic elements
[1]; Spleen, replicates
  Staining intensity (0 to 3+): 3+
[1]; Stomach
  Comments: epithelial cells stained: few epithelial cells <10%
  Comments: gastric mucosa cells stained: Few gastric mucosa cells (~10%);
[1]; Stomach, replicates, listed as mAb#A3C3
  Staining intensity (0 to 3+): 1+ and 0 (2×)
[1]; Testis, replicates
  Staining intensity (0 to 3+): 0
[1]; Thyroid gland, replicates
  Staining intensity (0 to 3+): 0
[1]; Ureter, replicates
  Staining intensity (0 to 3+): 0
[1]; Uterine cervix, replicates
  Staining intensity (0 to 3+): 0
[2]
  staining pattern by confocal microscopy: cell membrane staining
